This data set has as its target T1, EcoNrdR (Escherichia coli) (UniProt P0A8D0).
T1 sequence: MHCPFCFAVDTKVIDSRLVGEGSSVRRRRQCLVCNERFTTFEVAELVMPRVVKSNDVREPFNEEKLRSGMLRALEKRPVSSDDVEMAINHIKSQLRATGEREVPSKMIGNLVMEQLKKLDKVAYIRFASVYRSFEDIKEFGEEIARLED
The data set is described as follows: MST. The settings on record: temperature not stated. Lmo: 25 mM Bis-Tris propane pH 6.5, 100 mM KCl, 5 mM MgCl2, 5% glycerol, 1 mM DTT, 0.05% Tween 20, one nucleotide 1 mM or two at 0.

Take “ACTATTTGCTATATATTGTGTGGTTGAATCTTTTTTCAACTACATCTAGTATCTCTG (double strand) [Eco nrdHIEF wild type]”: the Kd worked out at 130 nM.

Usually Kd stands for the concentration at which binding is half-saturated.
